Assay results as given in patent US20200262877A1, “ION CHANNEL-BINDING PEPTIDES AND METHODS OF USE THEREOF” (priority 2017, published 2020).

Key:
[1] = biological target: T1, α3β4 (Homo sapiens, UniProt P30926+P32297); assay: Ion channel panel (IonWorks Barracuda): α3β4; assay type: cell-based; conditions: 100% = no change, <100% = inhibition
T1 construct: host or cells: HEK293 or CHO
Procedure, shortened: (§1)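 Peptides were tested in duplicate at final 20 μM and 200 nM, with concentration set by amino acid analysis, in HEPES-buffered saline. They were applied for at least 5 min to HEK293 or CHO cells transfected with each channel. Currents were expressed as % inhibition, 1-(Ipeptide/Icontrol)×100, or % activation, Ipeptide/Icontrol×100, against a channel-matched reference compound.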

[2] = biological target: T2, 5HT3a (Homo sapiens, UniProt P46098); assay: Ion channel panel (IonWorks Barracuda): 5HT3a; assay type: cell-based
T2 construct: host or cells: HEK293 or CHO
T2 sequence (P46098 whole entry, looked up): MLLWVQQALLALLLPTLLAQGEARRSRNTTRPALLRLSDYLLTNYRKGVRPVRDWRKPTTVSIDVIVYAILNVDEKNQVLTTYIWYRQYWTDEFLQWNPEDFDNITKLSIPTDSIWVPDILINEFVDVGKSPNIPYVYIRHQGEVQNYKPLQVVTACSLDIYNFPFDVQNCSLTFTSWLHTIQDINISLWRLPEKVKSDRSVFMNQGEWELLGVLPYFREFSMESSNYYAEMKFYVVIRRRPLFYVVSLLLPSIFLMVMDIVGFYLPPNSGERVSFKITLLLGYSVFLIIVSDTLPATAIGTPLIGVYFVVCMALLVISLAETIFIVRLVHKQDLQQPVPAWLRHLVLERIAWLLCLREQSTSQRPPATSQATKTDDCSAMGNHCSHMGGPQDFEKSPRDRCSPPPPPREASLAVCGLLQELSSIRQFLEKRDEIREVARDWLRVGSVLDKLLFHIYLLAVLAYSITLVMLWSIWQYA
Procedure, shortened: as §1

[3] = biological target: T3, NR2A (Homo sapiens, UniProt Q12879); assay: Ion channel panel (IonWorks Barracuda): NR2A; assay type: cell-based; conditions: 100% = no change, <100% = inhibition
T3 construct: host or cells: HEK293 or CHO
Procedure, shortened: as §1

[4] = biological target: T4, Kir2.1 (Homo sapiens, UniProt P63252); assay: Ion channel panel (IonWorks Barracuda): Kir2.1; assay type: cell-based; conditions: 100% = no change, <100% = inhibition
T4 construct: host or cells: HEK293 or CHO
Procedure, shortened: as §1

[5] = biological target: T5, TRPV1 (Homo sapiens, UniProt Q8NER1); assay: Ion channel panel (IonWorks Barracuda): TRPV1; assay type: cell-based; conditions: 100% = no change, <100% = inhibition
T5 construct: host or cells: HEK293 or CHO
Procedure, shortened: as §1

[6] = biological target: T6, Kv1.2 (Homo sapiens, UniProt P16389); assay: cell-based; assay type: cell-based; conditions: 100% = no change, <100% = inhibition
T6 construct: host or cells: HEK293 or CHO
Procedure, shortened: as §1

[7] = biological target: T7, Kv1.3 (Homo sapiens, UniProt P22001); assay: cell-based; assay type: cell-based; conditions: 100% = no change, <100% = inhibition
T7 construct: host or cells: HEK293 or CHO
Procedure, shortened: as §1

[8] = biological target: T8, Kv1.1 (Homo sapiens, UniProt Q09470); assay: cell-based; assay type: cell-based; conditions: 100% = no change, <100% = inhibition
T8 construct: host or cells: HEK293 or CHO
Procedure, shortened: as §1

[9] = biological target: T9, α4β2 (Homo sapiens, UniProt P17787+P43681); assay: Ion channel panel (IonWorks Barracuda): α4β2; assay type: cell-based; conditions: 100% = no change, <100% = inhibition
T9 construct: host or cells: HEK293 or CHO
Procedure, shortened: as §1

[10] = biological target: T10, Cav2.2 (Homo sapiens, UniProt Q00975); assay: cell-based; conditions: 100% = no change, <100% = inhibition
T10 construct: host or cells: HEK293 or CHO
Procedure, shortened: as §1

[11] = biological target: T11, Cav2.1 (Homo sapiens, UniProt O00555); assay: cell-based; conditions: 100% = no change, <100% = inhibition
T11 construct: host or cells: HEK293 or CHO
Procedure, shortened: as §1

[12] = biological target: T12, Kv2.1 (Homo sapiens, UniProt Q14721); assay: cell-based; conditions: 100% = no change, <100% = inhibition
T12 construct: host or cells: HEK293 or CHO
Procedure, shortened: as §1

[13] = biological target: Nav1.5 (Homo sapiens, UniProt Q14524); assay: in vitro; conditions: 100% = no change; for Activity of Nav1.5 with peptide, expressed as a percentage of the reference compound: peptide at 0.2 μM; for Activity of Nav1.5 with peptide (percentage of the reference compound): peptide at 20 μM
Procedure, shortened: as §1

[14] = biological target: hERG (Homo sapiens, UniProt Q12809); assay: in vitro; conditions: 100% = no change, <100% = inhibition
Procedure, shortened: as §1

[15] = test system: GABA; assay: Ion channel panel (IonWorks Barracuda): GABA; assay type: cell-based; conditions: 100% = no change, <100% = inhibition
Procedure, shortened: as §1

[16] = biological target: T13, Nav1.7 (Homo sapiens, UniProt Q15858); assay: cell-based; assay type: cell-based; conditions: 100% = no change; for Activity of Nav1.7 with peptide, expressed as a percentage of the reference compound: peptide at 0.2 μM; for Activity of Nav1.7 with peptide (percentage of the reference compound): peptide at 20 μM
T13 construct: host or cells: HEK293 or CHO

[17] = biological target: T14, TRPA1 (Homo sapiens, UniProt O75762); assay: Ion channel panel (IonWorks Barracuda): TRPA1; assay type: cell-based; conditions: 100% = no change, <100% = inhibition
T14 construct: host or cells: HEK293 or CHO
Procedure, shortened: as §1

[18] = biological target: T15, NR2B (Homo sapiens, UniProt Q13224); assay: Ion channel panel (IonWorks Barracuda): NR2B; assay type: cell-based; conditions: 100% = no change, <100% = inhibition
T15 construct: host or cells: HEK293 or CHO
Procedure, shortened: as §1

[19] = first of two Nav1.5 columns (probably TP1)
[20] = second of two Nav1.5 columns (probably TP2)
[21] = first of two Nav1.7 columns (probably TP1)
[22] = second of two Nav1.7 columns (probably TP2)

Chain of Nav1.5 (Q14524 whole entry): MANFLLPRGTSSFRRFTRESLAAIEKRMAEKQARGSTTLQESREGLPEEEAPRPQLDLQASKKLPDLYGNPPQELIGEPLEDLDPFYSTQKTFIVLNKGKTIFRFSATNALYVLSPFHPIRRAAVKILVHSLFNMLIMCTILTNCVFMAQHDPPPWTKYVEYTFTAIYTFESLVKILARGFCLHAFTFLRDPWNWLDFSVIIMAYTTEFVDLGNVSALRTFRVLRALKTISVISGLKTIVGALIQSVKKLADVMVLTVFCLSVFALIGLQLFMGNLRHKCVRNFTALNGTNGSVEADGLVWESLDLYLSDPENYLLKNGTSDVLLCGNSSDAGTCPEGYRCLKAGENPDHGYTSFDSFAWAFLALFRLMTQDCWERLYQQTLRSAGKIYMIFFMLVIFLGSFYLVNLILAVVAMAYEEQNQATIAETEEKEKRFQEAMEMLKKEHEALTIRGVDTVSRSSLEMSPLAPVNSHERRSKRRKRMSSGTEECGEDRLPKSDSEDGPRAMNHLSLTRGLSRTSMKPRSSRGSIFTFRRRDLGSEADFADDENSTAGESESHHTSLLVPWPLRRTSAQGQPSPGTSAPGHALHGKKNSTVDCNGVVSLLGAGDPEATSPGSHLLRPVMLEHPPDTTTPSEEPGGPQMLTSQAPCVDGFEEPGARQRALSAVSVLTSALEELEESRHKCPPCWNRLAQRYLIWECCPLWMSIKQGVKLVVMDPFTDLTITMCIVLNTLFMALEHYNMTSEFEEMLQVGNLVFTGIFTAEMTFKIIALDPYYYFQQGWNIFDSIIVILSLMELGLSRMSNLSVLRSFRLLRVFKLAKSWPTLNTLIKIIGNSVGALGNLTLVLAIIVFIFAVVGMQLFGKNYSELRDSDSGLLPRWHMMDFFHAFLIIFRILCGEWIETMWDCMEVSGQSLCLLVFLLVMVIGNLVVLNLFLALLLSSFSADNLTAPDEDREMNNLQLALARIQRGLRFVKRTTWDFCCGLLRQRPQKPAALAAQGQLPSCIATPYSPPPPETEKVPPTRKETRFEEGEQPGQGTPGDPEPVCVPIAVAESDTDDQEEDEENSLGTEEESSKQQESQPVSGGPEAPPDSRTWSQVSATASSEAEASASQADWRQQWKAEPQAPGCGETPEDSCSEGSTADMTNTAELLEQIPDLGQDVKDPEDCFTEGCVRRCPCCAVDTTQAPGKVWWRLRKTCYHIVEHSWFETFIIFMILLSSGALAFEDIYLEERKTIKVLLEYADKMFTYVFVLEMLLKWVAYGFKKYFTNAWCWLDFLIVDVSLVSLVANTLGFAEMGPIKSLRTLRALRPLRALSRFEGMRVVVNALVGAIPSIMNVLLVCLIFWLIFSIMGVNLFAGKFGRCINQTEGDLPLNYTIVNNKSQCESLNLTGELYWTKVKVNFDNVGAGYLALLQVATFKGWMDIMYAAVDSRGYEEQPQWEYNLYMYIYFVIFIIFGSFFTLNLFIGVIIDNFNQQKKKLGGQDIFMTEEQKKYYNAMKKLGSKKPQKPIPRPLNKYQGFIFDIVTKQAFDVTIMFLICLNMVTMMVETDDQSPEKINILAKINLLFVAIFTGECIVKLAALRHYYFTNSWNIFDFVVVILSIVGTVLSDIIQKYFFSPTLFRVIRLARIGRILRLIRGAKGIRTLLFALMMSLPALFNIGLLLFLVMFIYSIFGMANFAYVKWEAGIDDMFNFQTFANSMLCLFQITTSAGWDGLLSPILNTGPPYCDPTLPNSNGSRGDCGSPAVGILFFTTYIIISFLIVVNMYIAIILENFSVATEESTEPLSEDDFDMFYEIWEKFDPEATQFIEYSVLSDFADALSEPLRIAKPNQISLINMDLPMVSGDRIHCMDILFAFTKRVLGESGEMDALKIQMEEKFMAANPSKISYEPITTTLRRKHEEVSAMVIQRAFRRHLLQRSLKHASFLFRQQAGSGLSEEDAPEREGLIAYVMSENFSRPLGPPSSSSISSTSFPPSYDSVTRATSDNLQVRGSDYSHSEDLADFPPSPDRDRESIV
T13 sequence (Q15858 whole entry): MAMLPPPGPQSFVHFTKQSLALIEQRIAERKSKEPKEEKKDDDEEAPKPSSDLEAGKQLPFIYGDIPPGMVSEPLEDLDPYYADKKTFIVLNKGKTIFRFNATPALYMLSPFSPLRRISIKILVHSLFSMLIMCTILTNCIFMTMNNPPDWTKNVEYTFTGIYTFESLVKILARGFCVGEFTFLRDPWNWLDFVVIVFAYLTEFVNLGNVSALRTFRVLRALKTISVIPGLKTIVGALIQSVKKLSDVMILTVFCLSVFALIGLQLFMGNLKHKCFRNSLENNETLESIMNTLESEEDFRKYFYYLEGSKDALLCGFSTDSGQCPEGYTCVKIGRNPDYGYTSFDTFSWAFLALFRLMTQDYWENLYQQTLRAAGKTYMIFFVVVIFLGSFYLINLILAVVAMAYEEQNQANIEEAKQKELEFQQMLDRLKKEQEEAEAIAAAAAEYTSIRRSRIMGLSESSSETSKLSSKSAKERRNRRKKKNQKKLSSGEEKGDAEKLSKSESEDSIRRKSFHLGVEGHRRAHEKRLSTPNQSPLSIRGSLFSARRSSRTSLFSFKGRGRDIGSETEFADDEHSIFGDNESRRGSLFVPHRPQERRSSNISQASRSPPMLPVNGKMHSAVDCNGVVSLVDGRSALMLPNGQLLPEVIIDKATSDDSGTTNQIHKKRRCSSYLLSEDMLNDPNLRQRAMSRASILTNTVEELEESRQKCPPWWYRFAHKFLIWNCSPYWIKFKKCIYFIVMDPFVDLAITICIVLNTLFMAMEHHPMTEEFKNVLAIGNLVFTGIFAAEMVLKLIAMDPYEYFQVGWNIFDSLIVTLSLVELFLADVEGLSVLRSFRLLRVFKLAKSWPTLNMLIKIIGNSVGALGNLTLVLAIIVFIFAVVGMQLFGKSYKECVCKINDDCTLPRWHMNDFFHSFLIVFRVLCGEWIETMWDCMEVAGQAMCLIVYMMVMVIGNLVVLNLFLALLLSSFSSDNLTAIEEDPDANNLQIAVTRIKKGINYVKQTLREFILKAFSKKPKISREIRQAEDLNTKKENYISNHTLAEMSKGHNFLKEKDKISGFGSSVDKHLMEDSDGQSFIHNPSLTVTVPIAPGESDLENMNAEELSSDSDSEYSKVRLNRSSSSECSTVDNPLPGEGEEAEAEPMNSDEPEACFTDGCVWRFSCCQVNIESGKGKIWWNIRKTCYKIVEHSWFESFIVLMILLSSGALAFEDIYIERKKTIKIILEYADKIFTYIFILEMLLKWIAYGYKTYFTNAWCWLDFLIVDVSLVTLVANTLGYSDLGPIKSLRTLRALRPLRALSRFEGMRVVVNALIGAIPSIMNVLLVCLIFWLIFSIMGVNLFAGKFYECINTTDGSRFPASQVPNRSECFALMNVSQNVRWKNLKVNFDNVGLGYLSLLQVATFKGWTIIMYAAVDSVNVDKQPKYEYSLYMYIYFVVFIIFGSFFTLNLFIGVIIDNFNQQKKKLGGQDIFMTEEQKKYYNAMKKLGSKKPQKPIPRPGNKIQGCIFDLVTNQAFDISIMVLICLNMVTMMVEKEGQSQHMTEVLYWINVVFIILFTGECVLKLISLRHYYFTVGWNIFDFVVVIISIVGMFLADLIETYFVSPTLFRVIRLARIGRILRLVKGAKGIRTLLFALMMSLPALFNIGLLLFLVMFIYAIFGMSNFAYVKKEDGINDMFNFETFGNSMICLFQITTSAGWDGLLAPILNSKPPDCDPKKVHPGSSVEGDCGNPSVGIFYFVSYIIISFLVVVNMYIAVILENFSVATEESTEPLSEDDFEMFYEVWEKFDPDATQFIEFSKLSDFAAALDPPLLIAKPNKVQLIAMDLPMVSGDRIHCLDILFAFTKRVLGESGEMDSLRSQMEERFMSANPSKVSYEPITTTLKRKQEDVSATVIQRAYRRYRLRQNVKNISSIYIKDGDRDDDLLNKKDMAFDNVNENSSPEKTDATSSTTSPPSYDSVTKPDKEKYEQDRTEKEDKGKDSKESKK
T4 sequence (P63252 whole entry): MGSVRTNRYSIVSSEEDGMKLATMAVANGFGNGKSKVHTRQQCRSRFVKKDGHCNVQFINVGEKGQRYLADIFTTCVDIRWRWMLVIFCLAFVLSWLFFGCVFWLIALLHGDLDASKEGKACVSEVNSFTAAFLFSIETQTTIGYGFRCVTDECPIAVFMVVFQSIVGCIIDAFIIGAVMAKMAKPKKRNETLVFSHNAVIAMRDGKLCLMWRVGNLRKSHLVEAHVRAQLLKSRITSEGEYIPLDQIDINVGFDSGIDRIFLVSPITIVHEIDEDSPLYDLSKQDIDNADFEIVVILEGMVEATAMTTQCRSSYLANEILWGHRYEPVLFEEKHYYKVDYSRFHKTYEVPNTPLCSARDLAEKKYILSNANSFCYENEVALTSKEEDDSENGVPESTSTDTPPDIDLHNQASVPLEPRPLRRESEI
T8 sequence (Q09470 whole entry): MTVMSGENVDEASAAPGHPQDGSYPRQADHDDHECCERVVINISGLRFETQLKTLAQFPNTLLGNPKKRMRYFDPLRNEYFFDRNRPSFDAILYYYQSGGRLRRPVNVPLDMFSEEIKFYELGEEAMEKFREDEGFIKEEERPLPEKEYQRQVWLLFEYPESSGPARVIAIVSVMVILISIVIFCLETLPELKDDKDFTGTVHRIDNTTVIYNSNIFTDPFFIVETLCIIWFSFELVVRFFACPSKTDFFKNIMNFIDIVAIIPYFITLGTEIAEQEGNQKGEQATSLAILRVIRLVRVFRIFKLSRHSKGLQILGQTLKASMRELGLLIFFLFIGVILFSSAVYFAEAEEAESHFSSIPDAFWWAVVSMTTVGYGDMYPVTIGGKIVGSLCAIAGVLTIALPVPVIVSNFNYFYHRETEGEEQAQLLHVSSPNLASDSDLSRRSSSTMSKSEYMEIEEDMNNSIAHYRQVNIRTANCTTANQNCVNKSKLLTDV

14 (GSDRDSCIDKSRCSKYGYYQECQDCCKKAGHNGGTCMFFKCKCA) [compound 14]
Activity of a3b4 with peptide, expressed as a percentage of the reference compound ([1]; peptide at 0.2 μM): 99%
Activity of a3b4 with peptide (percentage of the reference compound) ([1]; peptide at 20 μM): 93%
Activity of 5HT3a with peptide (percentage of the reference compound) [2]: 78%
Activity of 5HT3a with peptide, expressed as a percentage of the reference compound [2]: 96%
Activity of NR2A with peptide, expressed as a percentage of the reference compound ([3]; peptide at 0.2 μM): 107%
Activity of NR2A with peptide (percentage of the reference compound) ([3]; peptide at 20 μM): 95%
Activity of Kir2.1 with peptide, expressed as a percentage of the reference compound ([4]; peptide at 0.2 μM): 95%
Activity of Kir2.1 with peptide (percentage of the reference compound) ([4]; peptide at 20 μM): 79%
Activity of TRPV1 with peptide, expressed as a percentage of the reference compound ([5]; peptide at 0.2 μM): 133%
Activity of TRPV1 with peptide (percentage of the reference compound) ([5]; peptide at 20 μM): 92%
Activity of Kv1.2 with peptide, expressed as a percentage of the reference compound ([6]; peptide at 0.2 μM): 73%
Activity of Kv1.2 with peptide (percentage of the reference compound) ([6]; peptide at 20 μM): 34%
Activity of Kv1.3 with peptide, expressed as a percentage of the reference compound ([7]; peptide at 0.2 μM): 87%
Activity of Kv1.3 with peptide (percentage of the reference compound) ([7]; peptide at 20 μM): 82%
Activity of Kv1.1 with peptide, expressed as a percentage of the reference compound ([8]; peptide at 0.2 μM): 79%
Activity of Kv1.1 with peptide (percentage of the reference compound) ([8]; peptide at 20 μM): 99%
Activity of a4b2 with peptide, expressed as a percentage of the reference compound ([9]; peptide at 0.2 μM): 106%
Activity of a4b2 with peptide (percentage of the reference compound) ([9]; peptide at 20 μM): 81%
Activity of Cav2.2 with peptide, expressed as a percentage of the reference compound ([10]; peptide at 0.2 μM): 129%
Activity of Cav2.2 with peptide (percentage of the reference compound) ([10]; peptide at 20 μM): 95%
Activity of Cav2.1 with peptide, expressed as a percentage of the reference compound ([11]; peptide at 0.2 μM): 118%
Activity of Cav2.1 with peptide (percentage of the reference compound) ([11]; peptide at 20 μM): 111%
Activity of Kv2.1 with peptide, expressed as a percentage of the reference compound ([12]; peptide at 0.2 μM): 109%
Activity of Kv2.1 with peptide (percentage of the reference compound) ([12]; peptide at 20 μM): 93%
Activity of Nav1.5 with peptide, expressed as a percentage of the reference compound [13, 19]: 85%
Activity of Nav1.5 with peptide, expressed as a percentage of the reference compound [13, 20]: 82%
Activity of Nav1.5 with peptide (percentage of the reference compound) [13, 19]: 94%
Activity of Nav1.5 with peptide (percentage of the reference compound) [13, 20]: 97%
Activity of hERG with peptide, expressed as a percentage of the reference compound ([14]; peptide at 0.2 μM): 82%
Activity of hERG with peptide (percentage of the reference compound) ([14]; peptide at 20 μM): 1%
Activity of GABA with peptide, expressed as a percentage of the reference compound ([15]; peptide at 0.2 μM): 107%
Activity of GABA with peptide (percentage of the reference compound) ([15]; peptide at 20 μM): 120%
Activity of Nav1.7 with peptide, expressed as a percentage of the reference compound [16, 21]: 83%
Activity of Nav1.7 with peptide, expressed as a percentage of the reference compound [16, 22]: 89%
Activity of Nav1.7 with peptide (percentage of the reference compound) [16, 21]: 72%
Activity of Nav1.7 with peptide (percentage of the reference compound) [16, 22]: 65%
Activity of TRPA1 with peptide, expressed as a percentage of the reference compound ([17]; peptide at 0.2 μM): 106%
Activity of TRPA1 with peptide (percentage of the reference compound) ([17]; peptide at 20 μM): 66%
Activity of NR2B with peptide, expressed as a percentage of the reference compound ([18]; peptide at 0.2 μM): 123%
Activity of NR2B with peptide (percentage of the reference compound) ([18]; peptide at 20 μM): 72%
